We go through one substance from patent publication US6864054.

This test addresses endogenous p53 (MRC5.SV40 cells; U-2 OS cells) (UniProt P04637). Kind of test: cell-based or functional assay.

Sequence of endogenous p53 (MRC5.SV40 cells; U-2 OS cells) (P04637 whole entry): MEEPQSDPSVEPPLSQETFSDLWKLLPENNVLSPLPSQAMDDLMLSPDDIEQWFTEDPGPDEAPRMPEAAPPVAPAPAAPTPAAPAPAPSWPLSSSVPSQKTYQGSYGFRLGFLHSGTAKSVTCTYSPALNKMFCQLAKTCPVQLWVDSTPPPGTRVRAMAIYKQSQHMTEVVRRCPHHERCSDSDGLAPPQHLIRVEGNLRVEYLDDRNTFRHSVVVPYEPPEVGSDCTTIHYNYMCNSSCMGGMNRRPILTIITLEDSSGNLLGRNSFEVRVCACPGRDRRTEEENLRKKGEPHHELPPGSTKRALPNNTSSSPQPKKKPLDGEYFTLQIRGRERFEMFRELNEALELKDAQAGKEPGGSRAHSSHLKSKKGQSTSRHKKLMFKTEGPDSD
Sequence of full-length CBP, P45481 2-2441 (P45481 2-2441 limits assumed): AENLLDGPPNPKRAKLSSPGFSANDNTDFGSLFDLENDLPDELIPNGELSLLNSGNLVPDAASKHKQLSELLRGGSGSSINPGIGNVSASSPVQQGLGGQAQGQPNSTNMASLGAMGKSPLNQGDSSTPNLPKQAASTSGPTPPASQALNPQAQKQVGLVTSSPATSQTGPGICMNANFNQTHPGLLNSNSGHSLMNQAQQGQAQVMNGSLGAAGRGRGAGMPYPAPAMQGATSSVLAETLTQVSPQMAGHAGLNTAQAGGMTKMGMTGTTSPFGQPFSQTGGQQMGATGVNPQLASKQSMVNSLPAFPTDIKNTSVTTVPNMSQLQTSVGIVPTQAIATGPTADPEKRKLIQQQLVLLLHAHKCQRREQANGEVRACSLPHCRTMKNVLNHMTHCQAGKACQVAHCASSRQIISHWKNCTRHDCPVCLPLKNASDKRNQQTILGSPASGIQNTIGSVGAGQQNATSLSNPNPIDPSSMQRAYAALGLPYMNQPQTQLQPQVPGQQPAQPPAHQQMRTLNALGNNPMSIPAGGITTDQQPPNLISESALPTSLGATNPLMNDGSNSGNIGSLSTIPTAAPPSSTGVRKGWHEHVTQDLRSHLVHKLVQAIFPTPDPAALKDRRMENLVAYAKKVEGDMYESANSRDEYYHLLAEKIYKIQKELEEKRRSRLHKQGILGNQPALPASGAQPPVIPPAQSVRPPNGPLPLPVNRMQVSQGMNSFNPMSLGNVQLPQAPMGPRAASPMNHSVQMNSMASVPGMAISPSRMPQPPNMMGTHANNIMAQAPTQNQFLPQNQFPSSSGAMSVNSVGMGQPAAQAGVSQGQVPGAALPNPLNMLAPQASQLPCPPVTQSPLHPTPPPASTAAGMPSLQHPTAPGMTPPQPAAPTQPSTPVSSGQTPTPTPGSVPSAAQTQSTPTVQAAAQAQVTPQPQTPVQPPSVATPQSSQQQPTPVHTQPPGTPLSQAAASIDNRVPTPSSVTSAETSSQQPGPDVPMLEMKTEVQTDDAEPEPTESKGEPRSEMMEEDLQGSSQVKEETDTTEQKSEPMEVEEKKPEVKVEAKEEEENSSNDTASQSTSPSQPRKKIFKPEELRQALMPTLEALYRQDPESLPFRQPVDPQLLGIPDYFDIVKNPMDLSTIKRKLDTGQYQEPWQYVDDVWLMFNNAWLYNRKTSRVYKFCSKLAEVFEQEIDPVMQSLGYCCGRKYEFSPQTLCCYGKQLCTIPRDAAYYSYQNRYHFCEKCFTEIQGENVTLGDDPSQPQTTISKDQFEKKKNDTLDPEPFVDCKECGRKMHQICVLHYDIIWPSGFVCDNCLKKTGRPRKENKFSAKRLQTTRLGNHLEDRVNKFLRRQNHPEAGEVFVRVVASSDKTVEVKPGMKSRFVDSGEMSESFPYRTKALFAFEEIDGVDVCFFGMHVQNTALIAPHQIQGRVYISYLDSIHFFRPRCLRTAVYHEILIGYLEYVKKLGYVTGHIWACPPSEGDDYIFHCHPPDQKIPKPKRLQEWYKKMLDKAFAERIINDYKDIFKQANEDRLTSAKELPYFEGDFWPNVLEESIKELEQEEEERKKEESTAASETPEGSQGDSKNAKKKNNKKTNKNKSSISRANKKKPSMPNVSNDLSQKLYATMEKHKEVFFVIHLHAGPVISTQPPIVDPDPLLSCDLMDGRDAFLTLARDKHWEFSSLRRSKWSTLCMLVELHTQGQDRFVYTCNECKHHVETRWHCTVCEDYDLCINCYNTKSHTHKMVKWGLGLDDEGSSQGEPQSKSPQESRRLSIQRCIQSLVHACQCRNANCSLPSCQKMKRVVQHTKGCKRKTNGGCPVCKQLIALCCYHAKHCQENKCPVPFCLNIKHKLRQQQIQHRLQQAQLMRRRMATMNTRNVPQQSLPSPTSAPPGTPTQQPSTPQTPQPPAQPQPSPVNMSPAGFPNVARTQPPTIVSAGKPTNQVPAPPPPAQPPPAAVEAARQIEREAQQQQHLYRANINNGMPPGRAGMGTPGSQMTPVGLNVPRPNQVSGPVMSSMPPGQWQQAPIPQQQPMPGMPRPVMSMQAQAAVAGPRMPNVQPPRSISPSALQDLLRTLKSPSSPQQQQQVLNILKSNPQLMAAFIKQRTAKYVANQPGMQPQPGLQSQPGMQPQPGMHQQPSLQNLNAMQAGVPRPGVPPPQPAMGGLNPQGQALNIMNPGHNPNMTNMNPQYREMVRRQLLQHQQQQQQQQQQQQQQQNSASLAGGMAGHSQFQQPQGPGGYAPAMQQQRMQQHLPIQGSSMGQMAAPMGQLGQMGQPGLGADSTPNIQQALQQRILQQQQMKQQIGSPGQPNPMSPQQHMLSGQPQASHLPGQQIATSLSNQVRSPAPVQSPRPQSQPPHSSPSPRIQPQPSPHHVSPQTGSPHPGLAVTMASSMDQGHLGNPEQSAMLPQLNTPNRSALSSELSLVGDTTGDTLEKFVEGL

For the substance full-length CBP, P45481 2-2441, the p53-dependent transcription (PG13CAT reporter, U2-OS cells) came to 7 fold.
